Measured values published in PMC7959165 (Molecular cell, 2020).

Biological target: E. coli RNAP σ^70 (E. coli, UniProt P00579 1-613)
Sequence (P00579 whole entry): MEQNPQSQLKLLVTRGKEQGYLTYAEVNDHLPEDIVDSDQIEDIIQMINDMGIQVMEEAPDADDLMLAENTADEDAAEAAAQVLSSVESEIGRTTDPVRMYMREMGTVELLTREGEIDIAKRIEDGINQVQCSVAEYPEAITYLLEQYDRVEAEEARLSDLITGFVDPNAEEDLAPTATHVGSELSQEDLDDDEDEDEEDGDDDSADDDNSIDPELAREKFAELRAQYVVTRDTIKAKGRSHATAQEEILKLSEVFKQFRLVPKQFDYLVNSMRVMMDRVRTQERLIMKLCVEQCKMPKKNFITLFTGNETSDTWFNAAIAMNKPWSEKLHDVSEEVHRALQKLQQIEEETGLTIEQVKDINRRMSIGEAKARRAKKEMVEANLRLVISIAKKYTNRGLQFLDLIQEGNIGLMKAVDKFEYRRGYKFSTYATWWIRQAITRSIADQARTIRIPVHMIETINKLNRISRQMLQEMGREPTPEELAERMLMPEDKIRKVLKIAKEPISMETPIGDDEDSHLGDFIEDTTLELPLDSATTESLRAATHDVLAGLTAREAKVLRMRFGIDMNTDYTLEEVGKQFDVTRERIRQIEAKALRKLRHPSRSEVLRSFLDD

B1: E. coli stringent starvation protein A (EcSspA) (natural protein, UniProt P0ACA3 1-212, looked up)
chain: MAVAANKRSVMTLFSGPTDIYSHQVRIVLAEKGVSFEIEHVEKDNPPQDLIDLNPNQSVPTLVDRELTLWESRIIMEYLDERFPHPPLMPVYPVARGESRLYMHRIEKDWYTLMNTIINGSASEADAARKQLREELLAIAPVFGQKPYFLSDEFSLVDCYLAPLLWRLPQLGIEFSGPGAKELKGYMTRVFERDSFLASLTEAEREMRLGRS
binding result: binds
